Data reported in patent publication US20210032299A1 (Eli Lilly, published 2021).
Substitutions are numbered along the chain they refer to. Starred links: 1 amine or outer side, 2 acyl side, 3 side chain; linkers in the order of their positions; H or OH if unused. Non-standard residues stand in square brackets, D forms with d. Groups on a side chain read outwards from the residue. No end group written: not given here. *: point of attachment. C20 diacid = O=C(O)CCCCCCCCCCCCCCCCCCC(=O)*; C18 diacid = O=C(O)CCCCCCCCCCCCCCCCC(=O)*; αMePhe(2-F) = C[C@](N)(Cc1ccccc1F)C(=O)O; γGlu = O=C(O)[C@H](CCC(=O)[*:2])N[*:1]; αMeF = C[C@](N)(Cc1ccccc1)C(=O)O; 4Pal = N[C@@H](Cc1ccncc1)C(=O)O; AEEA = NCCOCCOCC(=O)O; Aib = CC(C)(N)C(=O)O

T1: human glucose-dependent insulinotropic peptide receptor (human, UniProt P48546 22-466)
T1 sequence (looked up): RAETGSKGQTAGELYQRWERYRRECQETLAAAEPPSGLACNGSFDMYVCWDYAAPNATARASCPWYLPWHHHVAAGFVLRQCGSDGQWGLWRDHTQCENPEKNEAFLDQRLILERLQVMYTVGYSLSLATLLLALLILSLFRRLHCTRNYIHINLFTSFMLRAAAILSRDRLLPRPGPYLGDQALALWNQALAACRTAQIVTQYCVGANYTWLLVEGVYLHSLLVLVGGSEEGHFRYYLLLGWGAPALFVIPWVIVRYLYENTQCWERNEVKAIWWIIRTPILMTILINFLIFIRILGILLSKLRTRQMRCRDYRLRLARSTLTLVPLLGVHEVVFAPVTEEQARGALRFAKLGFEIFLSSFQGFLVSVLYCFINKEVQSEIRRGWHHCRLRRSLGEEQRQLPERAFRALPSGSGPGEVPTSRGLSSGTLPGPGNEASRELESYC

B1: Example 25 (peptide)
peptide: Y[Aib]EGT[αMeF]ISDYSIALDKK([AEEA-AEEA-γGlu-C20 diacid])HQ[Aib]EFVNWLLAGGPSSGAPPPS-NH2
modifications: N-terminus assumed
SMILES: CC[C@H](C)[C@H](NC(=O)[C@H](CO)NC(=O)[C@H](Cc1ccc(O)cc1)NC(=O)[C@H](CC(=O)O)NC(=O)[C@H](CO)NC(=O)[C@@H](NC(=O)[C@](C)(Cc1ccccc1)NC(=O)[C@@H](NC(=O)CNC(=O)[C@H](CCC(=O)O)NC(=O)C(C)(C)NC(=O)[C@@H](N)Cc1ccc(O)cc1)[C@@H](C)O)[C@@H](C)CC)C(=O)N[C@@H](C)C(=O)N[C@@H](CC(C)C)C(=O)N[C@@H](CC(=O)O)C(=O)N[C@@H](CCCCN)C(=O)N[C@@H](CCCCNC(=O)COCCOCCNC(=O)COCCOCCNC(=O)CC[C@H](NC(=O)CCCCCCCCCCCCCCCCCCC(=O)O)C(=O)O)C(=O)N[C@@H](Cc1c[nH]cn1)C(=O)N[C@@H](CCC(N)=O)C(=O)NC(C)(C)C(=O)N[C@@H](CCC(=O)O)C(=O)N[C@@H](Cc1ccccc1)C(=O)N[C@H](C(=O)N[C@@H](CC(N)=O)C(=O)N[C@@H](Cc1c[nH]c2ccccc12)C(=O)N[C@@H](CC(C)C)C(=O)N[C@@H](CC(C)C)C(=O)N[C@@H](C)C(=O)NCC(=O)NCC(=O)N1CCC[C@H]1C(=O)N[C@@H](CO)C(=O)N[C@@H](CO)C(=O)NCC(=O)N[C@@H](C)C(=O)N1CCC[C@H]1C(=O)N1CCC[C@H]1C(=O)N1CCC[C@H]1C(=O)N[C@@H](CO)C(N)=O)C(C)C
B2: Example 30 (peptide)
peptide: Ac-[dY]AEGT[αMePhe(2-F)]ISDYSIALDKK([AEEA-AEEA-γGlu-C18 diacid])HQ[Aib]EFVNYLLAGGPSSGAPPPS-NH2
SMILES: CC[C@H](C)[C@H](NC(=O)[C@H](CO)NC(=O)[C@H](Cc1ccc(O)cc1)NC(=O)[C@H](CC(=O)O)NC(=O)[C@H](CO)NC(=O)[C@@H](NC(=O)[C@](C)(Cc1ccccc1F)NC(=O)[C@@H](NC(=O)CNC(=O)[C@H](CCC(=O)O)NC(=O)[C@H](C)NC(=O)[C@@H](Cc1ccc(O)cc1)NC(C)=O)[C@@H](C)O)[C@@H](C)CC)C(=O)N[C@@H](C)C(=O)N[C@@H](CC(C)C)C(=O)N[C@@H](CC(=O)O)C(=O)N[C@@H](CCCCN)C(=O)N[C@@H](CCCCNC(=O)COCCOCCNC(=O)COCCOCCNC(=O)CC[C@H](NC(=O)CCCCCCCCCCCCCCCCC(=O)O)C(=O)O)C(=O)N[C@@H](Cc1c[nH]cn1)C(=O)N[C@@H](CCC(N)=O)C(=O)NC(C)(C)C(=O)N[C@@H](CCC(=O)O)C(=O)N[C@@H](Cc1ccccc1)C(=O)N[C@H](C(=O)N[C@@H](CC(N)=O)C(=O)N[C@@H](Cc1ccc(O)cc1)C(=O)N[C@@H](CC(C)C)C(=O)N[C@@H](CC(C)C)C(=O)N[C@@H](C)C(=O)NCC(=O)NCC(=O)N1CCC[C@H]1C(=O)N[C@@H](CO)C(=O)N[C@@H](CO)C(=O)NCC(=O)N[C@@H](C)C(=O)N1CCC[C@H]1C(=O)N1CCC[C@H]1C(=O)N1CCC[C@H]1C(=O)N[C@@H](CO)C(N)=O)C(C)C
B3: Example 31 (peptide)
peptide: Y[Aib]EGTFISDYSILLDKK([AEEA-AEEA-γGlu-C18 diacid])HQ[Aib]DFVNYLLAAGPSSGAPPPS-NH2
modifications: N-terminus assumed
SMILES: CC[C@H](C)[C@H](NC(=O)[C@H](CO)NC(=O)[C@H](Cc1ccc(O)cc1)NC(=O)[C@H](CC(=O)O)NC(=O)[C@H](CO)NC(=O)[C@@H](NC(=O)[C@H](Cc1ccccc1)NC(=O)[C@@H](NC(=O)CNC(=O)[C@H](CCC(=O)O)NC(=O)C(C)(C)NC(=O)[C@@H](N)Cc1ccc(O)cc1)[C@@H](C)O)[C@@H](C)CC)C(=O)N[C@@H](CC(C)C)C(=O)N[C@@H](CC(C)C)C(=O)N[C@@H](CC(=O)O)C(=O)N[C@@H](CCCCN)C(=O)N[C@@H](CCCCNC(=O)COCCOCCNC(=O)COCCOCCNC(=O)CC[C@H](NC(=O)CCCCCCCCCCCCCCCCC(=O)O)C(=O)O)C(=O)N[C@@H](Cc1c[nH]cn1)C(=O)N[C@@H](CCC(N)=O)C(=O)NC(C)(C)C(=O)N[C@@H](CC(=O)O)C(=O)N[C@@H](Cc1ccccc1)C(=O)N[C@H](C(=O)N[C@@H](CC(N)=O)C(=O)N[C@@H](Cc1ccc(O)cc1)C(=O)N[C@@H](CC(C)C)C(=O)N[C@@H](CC(C)C)C(=O)N[C@@H](C)C(=O)N[C@@H](C)C(=O)NCC(=O)N1CCC[C@H]1C(=O)N[C@@H](CO)C(=O)N[C@@H](CO)C(=O)NCC(=O)N[C@@H](C)C(=O)N1CCC[C@H]1C(=O)N1CCC[C@H]1C(=O)N1CCC[C@H]1C(=O)N[C@@H](CO)C(N)=O)C(C)C
B4: Example 24 (peptide)
peptide: Y[Aib]EGTFISDYSI[Aib]LDKK([AEEA-AEEA-γGlu-C18 diacid])HQ[Aib]DFVE[4Pal]LLAGGPSSGAPPPS-NH2
modifications: N-terminus assumed
SMILES: CC[C@H](C)[C@H](NC(=O)[C@H](Cc1ccccc1)NC(=O)[C@@H](NC(=O)CNC(=O)[C@H](CCC(=O)O)NC(=O)C(C)(C)NC(=O)[C@@H](N)Cc1ccc(O)cc1)[C@@H](C)O)C(=O)N[C@@H](CO)C(=O)N[C@@H](CC(=O)O)C(=O)N[C@@H](Cc1ccc(O)cc1)C(=O)N[C@@H](CO)C(=O)N[C@H](C(=O)NC(C)(C)C(=O)N[C@@H](CC(C)C)C(=O)N[C@@H](CC(=O)O)C(=O)N[C@@H](CCCCN)C(=O)N[C@@H](CCCCNC(=O)COCCOCCNC(=O)COCCOCCNC(=O)CC[C@H](NC(=O)CCCCCCCCCCCCCCCCC(=O)O)C(=O)O)C(=O)N[C@@H](Cc1c[nH]cn1)C(=O)N[C@@H](CCC(N)=O)C(=O)NC(C)(C)C(=O)N[C@@H](CC(=O)O)C(=O)N[C@@H](Cc1ccccc1)C(=O)N[C@H](C(=O)N[C@@H](CCC(=O)O)C(=O)N[C@@H](Cc1ccncc1)C(=O)N[C@@H](CC(C)C)C(=O)N[C@@H](CC(C)C)C(=O)N[C@@H](C)C(=O)NCC(=O)NCC(=O)N1CCC[C@H]1C(=O)N[C@@H](CO)C(=O)N[C@@H](CO)C(=O)NCC(=O)N[C@@H](C)C(=O)N1CCC[C@H]1C(=O)N1CCC[C@H]1C(=O)N1CCC[C@H]1C(=O)N[C@@H](CO)C(N)=O)C(C)C)[C@@H](C)CC
B5: Example 26 (peptide)
peptide: Y[Aib]EGT[αMePhe(2-F)]ISDYSIALDKK([AEEA-AEEA-γGlu-C20 diacid])HQ[Aib]EFVNWLLAGGPSSGAPPPS-NH2
modifications: N-terminus assumed
SMILES: CC[C@H](C)[C@H](NC(=O)[C@H](CO)NC(=O)[C@H](Cc1ccc(O)cc1)NC(=O)[C@H](CC(=O)O)NC(=O)[C@H](CO)NC(=O)[C@@H](NC(=O)[C@](C)(Cc1ccccc1F)NC(=O)[C@@H](NC(=O)CNC(=O)[C@H](CCC(=O)O)NC(=O)C(C)(C)NC(=O)[C@@H](N)Cc1ccc(O)cc1)[C@@H](C)O)[C@@H](C)CC)C(=O)N[C@@H](C)C(=O)N[C@@H](CC(C)C)C(=O)N[C@@H](CC(=O)O)C(=O)N[C@@H](CCCCN)C(=O)N[C@@H](CCCCNC(=O)COCCOCCNC(=O)COCCOCCNC(=O)CC[C@H](NC(=O)CCCCCCCCCCCCCCCCCCC(=O)O)C(=O)O)C(=O)N[C@@H](Cc1c[nH]cn1)C(=O)N[C@@H](CCC(N)=O)C(=O)NC(C)(C)C(=O)N[C@@H](CCC(=O)O)C(=O)N[C@@H](Cc1ccccc1)C(=O)N[C@H](C(=O)N[C@@H](CC(N)=O)C(=O)N[C@@H](Cc1c[nH]c2ccccc12)C(=O)N[C@@H](CC(C)C)C(=O)N[C@@H](CC(C)C)C(=O)N[C@@H](C)C(=O)NCC(=O)NCC(=O)N1CCC[C@H]1C(=O)N[C@@H](CO)C(=O)N[C@@H](CO)C(=O)NCC(=O)N[C@@H](C)C(=O)N1CCC[C@H]1C(=O)N1CCC[C@H]1C(=O)N1CCC[C@H]1C(=O)N[C@@H](CO)C(N)=O)C(C)C
B6: Example 27 (peptide)
peptide: YXEGTFISDYSILLDKKAQXEFVQWLLAGGPSSGAPPPS
modifications: D-Ala2; K17((2-[2-(2-Amino-ethoxy)-ethoxy]-acetyl)2-(γ-Glu)-CO-(CH2)16-CO2H); Aib20; C-terminal amide
B7: Example 29 (peptide)
peptide: B6 peptide with Q24E
modifications: D-Ala2; K17((2-[2-(2-Amino-ethoxy)-ethoxy]-acetyl)2-(γ-Glu)-CO-(CH2)16-CO2H); Aib20; C-terminal amide
B8: Example 28 (peptide)
peptide: B6 peptide with Q24N, A28E
modifications: D-Ala2; K17((2-[2-(2-Amino-ethoxy)-ethoxy]-acetyl)2-(γ-Glu)-CO-(CH2)16-CO2H); Aib20; C-terminal amide

Target: human glucagon receptor (human, UniProt P47871 26-477)
Sequence (P47871 26-477): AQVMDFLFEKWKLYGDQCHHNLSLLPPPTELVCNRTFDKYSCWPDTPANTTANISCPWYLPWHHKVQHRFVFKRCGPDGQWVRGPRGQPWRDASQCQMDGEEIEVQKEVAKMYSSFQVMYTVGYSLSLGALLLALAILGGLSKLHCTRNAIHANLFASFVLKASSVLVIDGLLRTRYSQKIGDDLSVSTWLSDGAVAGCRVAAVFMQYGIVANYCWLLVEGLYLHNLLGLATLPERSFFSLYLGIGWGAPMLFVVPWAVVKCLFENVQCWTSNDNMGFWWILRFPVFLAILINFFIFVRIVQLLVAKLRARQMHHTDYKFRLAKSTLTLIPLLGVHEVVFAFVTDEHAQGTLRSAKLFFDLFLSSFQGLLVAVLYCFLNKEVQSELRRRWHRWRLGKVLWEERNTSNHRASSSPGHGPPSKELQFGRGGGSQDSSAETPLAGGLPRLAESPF
Experiment: cell-based or functional assay

Binder	hGcgR cAMP Rel EC50
B1	> 5000 nM
B2	> 5000 nM
B3	1750 nM
B4	> 5000 nM
B5	> 5000 nM
B6	> 5000 nM
B7	> 5000 nM
B8	> 5000 nM

Target: T1, human glucose-dependent insulinotropic …
Experiment: cell-based or functional assay

Binder	hGIPR cAMP Rel EC50
B1	0.0155 nM
B2	0.00572 nM
B3	0.0148 nM
B4	0.0699 nM
B5	0.00991 nM
B6	0.0132 nM
B7	0.00679 nM
B8	0.0118 nM

Target: human GLP-1 receptor (human, UniProt P43220 24-463)
Experiment: cell-based or functional assay

Binder	hGLP1R cAMP Rel EC50
B1	8.39 nM
B2	> 5000 nM
B3	> 5000 nM
B4	> 5000 nM
B5	5.69 nM
B6	> 5000 nM
B7	> 5000 nM
B8	> 5000 nM
